Consider one protein from patent US20140031234A1 (published 2014).

The data set concerns the molecule itself. Nature of the data set: Sephacryl S100 gel filtration; self-association. (In general: SEC sorts molecules by how far they enter the pores of the column.)

B1: Strep-tagged Δ513 of NPR1 (other)
chain: AVLDQIMNCEDLTQLACGEDDTAEKRLQKKQRYMEIQETLKKAFSEDNLELGNSSLTDSTSSTSKSTGGKRSNRKLSHRRR
notes: E. coli-produced; used in S100 gel filtration; not shown: N-terminal Strep-Tag (and any vector linker)
In the case of B1, the binding result was “binds”.
